Key:
4H2961-AA = biological target: T1, 4H2961-AA; assay: two-hybrid library CCmax; conditions: mean of both orientations;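 further: natural log of median RNA to DNA barcode read ratio; higher means stronger binding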
T1 chain: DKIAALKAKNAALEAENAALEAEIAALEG

4H1349-AA = biological target: T2, 4H1349-AA; assay: two-hybrid library CCmax; conditions: mean of both orientations;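 further: natural log of median RNA to DNA barcode read ratio; higher means stronger binding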
T2 chain: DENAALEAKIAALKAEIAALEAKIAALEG

4H1449-AA = biological target: T3, 4H1449-AA; assay: two-hybrid library CCmax; conditions: mean of both orientations;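 further: natural log of median RNA to DNA barcode read ratio; higher means stronger binding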
T3 chain: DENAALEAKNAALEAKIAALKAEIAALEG

4H2947-AA = biological target: T4, 4H2947-AA; assay: two-hybrid library CCmax; conditions: mean of both orientations;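 further: natural log of median RNA to DNA barcode read ratio; higher means stronger binding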
T4 chain: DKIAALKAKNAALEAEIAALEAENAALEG

4H249-AA = biological target: T5, 4H249-AA; assay: two-hybrid library CCmax; conditions: mean of both orientations
T5 chain: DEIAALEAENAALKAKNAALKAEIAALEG

4H3777-AA = biological target: T6, 4H3777-AA; assay: two-hybrid library CCmax; conditions: mean of both orientations
T6 chain: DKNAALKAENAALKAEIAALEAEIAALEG

4H3049-AA = biological target: T7, 4H3049-AA; assay: two-hybrid library CCmax; conditions: mean of both orientations
T7 chain: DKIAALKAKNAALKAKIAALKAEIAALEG

4H446-AA = biological target: T8, 4H446-AA; assay: two-hybrid library CCmax; conditions: mean of both orientations
T8 chain: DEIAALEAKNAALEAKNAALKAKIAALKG

4H235-AA = biological target: T9, 4H235-AA; assay: two-hybrid library CCmax; conditions: mean of both orientations
T9 chain: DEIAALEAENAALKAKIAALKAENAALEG

4H2760-AA = biological target: T10, 4H2760-AA; assay: two-hybrid library CCmax; conditions: mean of both orientations
T10 chain: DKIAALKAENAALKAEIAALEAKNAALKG

4H1593-AA = biological target: T11, 4H1593-AA; assay: two-hybrid library CCmax; conditions: mean of both orientations
T11 chain: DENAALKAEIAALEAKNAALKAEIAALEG

4H2621-AA = biological target: T12, 4H2621-AA; assay: two-hybrid library CCmax; conditions: mean of both orientations
T12 chain: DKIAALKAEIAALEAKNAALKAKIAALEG

4H2604-AA = biological target: T13, 4H2604-AA; assay: two-hybrid library CCmax; conditions: mean of both orientations
T13 chain: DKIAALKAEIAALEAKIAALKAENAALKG

4H432-AA = biological target: T14, 4H432-AA; assay: two-hybrid library CCmax; conditions: mean of both orientations
T14 chain: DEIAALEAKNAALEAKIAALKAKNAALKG

4H133-AA = biological target: T15, 4H133-AA; assay: two-hybrid library CCmax; conditions: mean of both orientations
T15 chain: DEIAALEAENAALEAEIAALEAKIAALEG

4H341-AA = biological target: T16, 4H341-AA; assay: two-hybrid library CCmax; conditions: mean of both orientations
T16 chain: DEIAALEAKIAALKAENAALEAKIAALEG

4H2903-AA = biological target: T17, 4H2903-AA; assay: two-hybrid library CCmax; conditions: mean of both orientations
T17 chain: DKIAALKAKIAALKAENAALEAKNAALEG

4H3449-AA = biological target: T18, 4H3449-AA; assay: two-hybrid library CCmax; conditions: mean of both orientations
T18 chain: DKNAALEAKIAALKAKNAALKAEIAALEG

4H1878-AA = biological target: T19, 4H1878-AA; assay: two-hybrid library CCmax; conditions: mean of both orientations
T19 chain: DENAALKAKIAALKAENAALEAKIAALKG

4H3915-AA = biological target: T20, 4H3915-AA; assay: two-hybrid library CCmax; conditions: mean of both orientations
T20 chain: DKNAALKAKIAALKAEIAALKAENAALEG

4H1040-AA = biological target: T21, 4H1040-AA; assay: two-hybrid library CCmax
T21 chain: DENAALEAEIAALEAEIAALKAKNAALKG

4H324-AA = biological target: T22, 4H324-AA; assay: two-hybrid library CCmax; conditions: mean of both orientations
T22 chain: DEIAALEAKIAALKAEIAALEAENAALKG

4H3629-AA = biological target: T23, 4H3629-AA; assay: two-hybrid library CCmax; conditions: mean of both orientations
T23 chain: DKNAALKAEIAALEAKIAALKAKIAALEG

4H1384-AA = biological target: T24, 4H1384-AA; assay: two-hybrid library CCmax; conditions: mean of both orientations
T24 chain: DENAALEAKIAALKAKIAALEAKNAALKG

4H2774-AA = biological target: T25, 4H2774-AA; assay: two-hybrid library CCmax; conditions: mean of both orientations
T25 chain: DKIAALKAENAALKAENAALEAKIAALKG

4H3094-AA = biological target: T26, 4H3094-AA; assay: two-hybrid library CCmax; conditions: mean of both orientations
T26 chain: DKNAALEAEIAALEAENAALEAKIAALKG

4H1262-AA = biological target: T27, 4H1262-AA; assay: two-hybrid library CCmax; conditions: mean of both orientations
T27 chain: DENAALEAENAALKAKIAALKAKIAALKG

4H63-AA = biological target: T28, 4H63-AA; assay: two-hybrid library CCmax; conditions: mean of both orientations
T28 chain: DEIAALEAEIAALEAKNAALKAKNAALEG

4H2580-AA = biological target: T29, 4H2580-AA; assay: two-hybrid library CCmax; conditions: mean of both orientations
T29 chain: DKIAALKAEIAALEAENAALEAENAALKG

4H3619-AA = biological target: T30, 4H3619-AA; assay: two-hybrid library CCmax; conditions: mean of both orientations
T30 chain: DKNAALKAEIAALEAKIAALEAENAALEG

4H3974-AA = biological target: T31, 4H3974-AA; assay: two-hybrid library CCmax; conditions: mean of both orientations
T31 chain: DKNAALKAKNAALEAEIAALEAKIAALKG

4H380-AA = biological target: T32, 4H380-AA; assay: two-hybrid library CCmax; conditions: mean of both orientations
T32 chain: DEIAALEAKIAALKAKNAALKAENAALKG

GCN4-SR [1] = biological target: T33, GCN4-SR; assay: two-hybrid library CCNG1
T33 chain: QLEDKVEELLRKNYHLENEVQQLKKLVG

GCN4-SR [2] = biological target: T33, GCN4-SR; assay: two-hybrid library CCmax
Core_IIIN-es_KKKE = biological target: T34, Core_IIIN-es_KKKE; assay: two-hybrid library CCmax; conditions: mean of both orientations
T34 chain: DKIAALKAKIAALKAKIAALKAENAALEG

B1: 4H1040-AA (peptide)
chain: DENAALEAEIAALEAEIAALKAKNAALKG
**Q.** B1 was tested. Which interaction score (4H2961-AA) did it give?
**A.** Its interaction score is -1.24.

**Q.** And the interaction score (4H1349-AA)?
**A.** The interaction score was 0.263.

**Q.** What about the interaction score (4H1449-AA) of the same binder?
**A.** The interaction score was 0.618.

**Q.** And the interaction score (4H2947-AA)?
**A.** The interaction score was -1.06.

**Q.** What about the interaction score (4H249-AA) of the same binder?
**A.** The interaction score was -0.999.

**Q.** What about the interaction score (4H3777-AA) of the same binder?
**A.** The interaction score was -0.948.

**Q.** And the interaction score (4H3049-AA)?
**A.** The interaction score was 1.34.

**Q.** And the interaction score (4H446-AA)?
**A.** Its interaction score is -1.4.

**Q.** What about the interaction score (4H235-AA) of the same binder?
**A.** Its interaction score is -1.14.

**Q.** And the interaction score (4H2760-AA)?
**A.** Its interaction score is -1.46.

**Q.** What about the interaction score (4H1593-AA) of the same binder?
**A.** The interaction score was -1.27.

**Q.** And the interaction score (4H2621-AA)?
**A.** Its interaction score is -0.66.

**Q.** And the interaction score (4H2604-AA)?
**A.** The interaction score was 0.338.

**Q.** What about the interaction score (4H432-AA) of the same binder?
**A.** The interaction score was -1.63.

**Q.** And the interaction score (4H133-AA)?
**A.** Its interaction score is -1.47.

**Q.** And the interaction score (4H341-AA)?
**A.** Its interaction score is -0.876.

**Q.** What about the interaction score (4H2903-AA) of the same binder?
**A.** Its interaction score is 1.05.

**Q.** And the interaction score (4H3449-AA)?
**A.** Its interaction score is -0.935.

**Q.** What about the interaction score (4H1878-AA) of the same binder?
**A.** Its interaction score is -0.752.

**Q.** What about the interaction score (4H3915-AA) of the same binder?
**A.** The interaction score was 2.34.

**Q.** And the interaction score (4H1040-AA)?
**A.** The interaction score was 0.802.

**Q.** And the interaction score (4H324-AA)?
**A.** Its interaction score is 1.68.

**Q.** And the interaction score (4H3629-AA)?
**A.** Its interaction score is 1.28.

**Q.** What about the interaction score (4H1384-AA) of the same binder?
**A.** Its interaction score is 0.28.

**Q.** What about the interaction score (4H2774-AA) of the same binder?
**A.** The interaction score was -0.661.

**Q.** What about the interaction score (4H3094-AA) of the same binder?
**A.** Its interaction score is -1.03.

**Q.** What about the interaction score (4H1262-AA) of the same binder?
**A.** Its interaction score is 1.1.

**Q.** And the interaction score (4H63-AA)?
**A.** Its interaction score is -1.26.

**Q.** And the interaction score (4H2580-AA)?
**A.** The interaction score was 1.19.

**Q.** What about the interaction score (4H3619-AA) of the same binder?
**A.** Its interaction score is 0.716.

**Q.** What about the interaction score (4H3974-AA) of the same binder?
**A.** Its interaction score is 0.222.

**Q.** And the interaction score (4H380-AA)?
**A.** The interaction score was 0.307.

B2: GCN4-SR (peptide)
chain: QLEDKVEELLRKNYHLENEVQQLKKLVG
**Q.** What does the source list for B2?
**A.** interaction score (GCN4-SR [1]): -2.35; interaction score (GCN4-SR [2]): -1.35

B3: Core_IIIN-es_EEEK (peptide)
chain: DEIAALEAEIAALEAEIAALEAKNAALKG
**Q.** Which interaction score (Core_IIIN-es_KKKE) does the source give for B3 here?
**A.** Its interaction score is 2.19.
